Results published in IntAct's records for PubMed 22632968.

B1: SUN domain-containing protein 2 (Homo sapiens), Q9UH99 (parent)
chain: MSRRSQRLTRYSQGDDDGSSSSGGSSVAGSQSTLFKDSPLRTLKRKSSNMKRLSPAPQLGPSSDAHTSYYSESLVHESWFPPRSSLEELHGDANWGEDLRVRRRRGTGGSESSRASGLVGRKATEDFLGSSSGYSSEDDYVGYSDVDQQSSSSRLRSAVSRAGSLLWMVATSPGRLFRLLYWWAGTTWYRLTTAASLLDVFVLTRRFSSLKTFLWFLLPLLLLTCLTYGAWYFYPYGLQTFHPALVSWWAAKDSRRPDEGWEARDSSPHFQAEQRVMSRVHSLERRLEALAAEFSSNWQKEAMRLERLELRQGAPGQGGGGGLSHEDTLALLEGLVSRREAALKEDFRRETAARIQEELSALRAEHQQDSEDLFKKIVRASQESEARIQQLKSEWQSMTQESFQESSVKELRRLEDQLAGLQQELAALALKQSSVAEEVGLLPQQIQAVRDDVESQFPAWISQFLARGGGGRVGLLQREEMQAQLRELESKILTHVAEMQGKSAREAAASLSLTLQKEGVIGVTEEQVHHIVKQALQRYSEDRIGLADYALESGGASVISTRCSETYETKTALLSLFGIPLWYHSQSPRVILQPDVHPGNCWAFQGPQGFAVVRLSARIRPTAVTLEHVPKALSPNSTISSAPKDFAIFGFDEDLQQEGTLLGKFTYDQDGEPIQTFHFQAPTMATYQVVELRILTNWGHPEYTCIYRFRVHGEPAH

Variants of: B1
Conditions: with syne2_human SYNE2, Q8WXH0
L536D was tested, and the “effect of a mutation on the interaction” value was “decreasing interaction strength”.
For D542N, the “effect of a mutation on the interaction” value was “decreasing interaction strength”.

Variants of: B1
Conditions: with syne2_human SYNE2, Q8WXH0
Remark: another data set of the same source
In the case of S641E, the “effect of a mutation on the interaction” value is reported as “disrupting interaction strength”.
For H628A, the “effect of a mutation on the interaction” value was “disrupting interaction strength”.
